From patent US20200405868A1, “GEL-FORMING POLYPEPTIDES” (priority 2018, published 2020)
“Also recorded” adds a separate entry of the source. Blank lines part the entries; values can stand above or below the substance they belong to. The star is where a group is joined. Palmitoyl = CCCCCCCCCCCCCCCC(=O)*

Test: Compound gel-forming ability in water (visual inspection, tube tapping assay, tilted tube assay);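 further: peptides mixed with de-ionized water at about 22-25 °C, judged after 20 min by eye plus tube tapping (10 taps, moves counted) and 90° tilt mobility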
Type: physicochemical
Settings: for Physical property at 11% w/w: 11% w/w in aqueous solution, room temperature; for gel formation at 11% w/w: 11% w/w in water; for gel formation in aqueous solution, 6% / gel formation in aqueous solution, 11% / gel formation in aqueous solution, 20%: Table 3; for gel formation in aqueous solution, 6% / propensity to form gels, wild-type counterparts, 6% / propensity to form gels, chimeric or mutated polypeptides, 6%: 6% w/w; for gel formation at 20% w/w: 20% w/w in water; for gel formation in aqueous solution, 11% / propensity to form gels, chimeric or mutated polypeptides, 11% / propensity to form gels, wild-type counterparts, 11%: 11% w/w; for gel formation at 6% w/w: 6% w/w in water

Substance: Pal-VQKLAHQIYQFTDKDVAPRSKISPQGY-NH2 (Palmitoyl-VQKLAHQIYQFTDKDVAPRSKISPQGY-NH2; SMILES CCCCCCCCCCCCCCCC(=O)N[C@H](C(=O)N[C@@H](CCC(N)=O)C(=O)N[C@@H](CCCCN)C(=O)N[C@@H](CC(C)C)C(=O)N[C@@H](C)C(=O)N[C@@H](Cc1c[nH]cn1)C(=O)N[C@@H](CCC(N)=O)C(=O)N[C@H](C(=O)N[C@@H](Cc1ccc(O)cc1)C(=O)N[C@@H](CCC(N)=O)C(=O)N[C@@H](Cc1ccccc1)C(=O)N[C@H](C(=O)N[C@@H](CC(=O)O)C(=O)N[C@@H](CCCCN)C(=O)N[C@@H](CC(=O)O)C(=O)N[C@H](C(=O)N[C@@H](C)C(=O)N1CCC[C@H]1C(=O)N[C@@H](CCCNC(=N)N)C(=O)N[C@@H](CO)C(=O)N[C@@H](CCCCN)C(=O)N[C@H](C(=O)N[C@@H](CO)C(=O)N1CCC[C@H]1C(=O)N[C@@H](CCC(N)=O)C(=O)NCC(=O)N[C@@H](Cc1ccc(O)cc1)C(N)=O)[C@@H](C)CC)C(C)C)[C@@H](C)O)[C@@H](C)CC)C(C)C) [SEQ ID NO:102]
Physical property at 11% w/w (Table 2): AS/IS (AS/IS for aqueous solution or insoluble)

gel formation at 11% w/w: liquid gel
propensity to form gels, wild-type counterparts, 3% (Table 5, 3% w/w): AS/IS
propensity to form gels, wild-type counterparts, 6% (Table 5): AS/IS
Substance: Ace-K(PAL)FGCRFGTCTVQKLAHQIYQFTDKDKDNVAPRSKISPQGY-NH2 [SEQ ID NO:1]
gel formation in aqueous solution, 6%: AS/IS (AS/IS for aqueous solution or insoluble)

Substance: Pal-HSYGTFTSDVSSYLEGQAAKEFIAWLVKGR-NH2 (Palmitoyl-HSYGTFTSDVSSYLEGQAAKEFIAWLVKGR-NH2; SMILES CCCCCCCCCCCCCCCC(=O)N[C@@H](Cc1c[nH]cn1)C(=O)N[C@@H](CO)C(=O)N[C@@H](Cc1ccc(O)cc1)C(=O)NCC(=O)N[C@H](C(=O)N[C@@H](Cc1ccccc1)C(=O)N[C@H](C(=O)N[C@@H](CO)C(=O)N[C@@H](CC(=O)O)C(=O)N[C@H](C(=O)N[C@@H](CO)C(=O)N[C@@H](CO)C(=O)N[C@@H](Cc1ccc(O)cc1)C(=O)N[C@@H](CC(C)C)C(=O)N[C@@H](CCC(=O)O)C(=O)NCC(=O)N[C@@H](CCC(N)=O)C(=O)N[C@@H](C)C(=O)N[C@@H](C)C(=O)N[C@@H](CCCCN)C(=O)N[C@@H](CCC(=O)O)C(=O)N[C@@H](Cc1ccccc1)C(=O)N[C@H](C(=O)N[C@@H](C)C(=O)N[C@@H](Cc1c[nH]c2ccccc12)C(=O)N[C@@H](CC(C)C)C(=O)N[C@H](C(=O)N[C@@H](CCCCN)C(=O)NCC(=O)N[C@@H](CCCNC(=N)N)C(N)=O)C(C)C)[C@@H](C)CC)C(C)C)[C@@H](C)O)[C@@H](C)O) [SEQ ID NO:221]
gel formation in aqueous solution, 6%: SS (SS for semisolid gel)
propensity to form gels, chimeric or mutated polypeptides, 6% (Table 5): SS (An ability to form semisolid gel is represented by an SS)

Substance: Pal-HSYADAIFTNSYRKVLGQLSARKLLQDIMSR-NH2 (Palmitoyl-HSYADAIFTNSYRKVLGQLSARKLLQDIMSR-NH2; SMILES CCCCCCCCCCCCCCCC(=O)N[C@@H](Cc1c[nH]cn1)C(=O)N[C@@H](CO)C(=O)N[C@@H](Cc1ccc(O)cc1)C(=O)N[C@@H](C)C(=O)N[C@@H](CC(=O)O)C(=O)N[C@@H](C)C(=O)N[C@H](C(=O)N[C@@H](Cc1ccccc1)C(=O)N[C@H](C(=O)N[C@@H](CC(N)=O)C(=O)N[C@@H](CO)C(=O)N[C@@H](Cc1ccc(O)cc1)C(=O)N[C@@H](CCCNC(=N)N)C(=O)N[C@@H](CCCCN)C(=O)N[C@H](C(=O)N[C@@H](CC(C)C)C(=O)NCC(=O)N[C@@H](CCC(N)=O)C(=O)N[C@@H](CC(C)C)C(=O)N[C@@H](CO)C(=O)N[C@@H](C)C(=O)N[C@@H](CCCNC(=N)N)C(=O)N[C@@H](CCCCN)C(=O)N[C@@H](CC(C)C)C(=O)N[C@@H](CC(C)C)C(=O)N[C@@H](CCC(N)=O)C(=O)N[C@@H](CC(=O)O)C(=O)N[C@H](C(=O)N[C@@H](CCSC)C(=O)N[C@@H](CO)C(=O)N[C@@H](CCCNC(=N)N)C(N)=O)[C@@H](C)CC)C(C)C)[C@@H](C)O)[C@@H](C)CC) [SEQ ID NO:237]
gel formation at 20% w/w: semisolid gel
gel formation in aqueous solution, 6%: AS/IS (AS/IS for aqueous solution or insoluble)
gel formation in aqueous solution, 11%: AS/IS (AS/IS for aqueous solution or insoluble)
gel formation in aqueous solution, 20% (20% w/w): SS (SS for semisolid gel)
propensity to form gels, chimeric or mutated polypeptides, 6% (Table 5): AS/IS
propensity to form gels, chimeric or mutated polypeptides, 11% (Table 5): AS/IS
propensity to form gels, chimeric or mutated polypeptides, 20% (Table 5, 20% w/w): SS (An ability to form semisolid gel is represented by an SS)

Substance: CSNLSTCVLGKLSQELHKLQTYPRTNTGSGTP-NH2 [SEQ ID NO:28, reference compound]
gel formation at 11% w/w: does not form gel
Physical property at 11% w/w (Table 1): AS/IS
gel formation in aqueous solution, 20% (20% w/w): AS/IS (AS/IS for aqueous solution or insoluble)
propensity to form gels, wild-type counterparts, 11% (Table 5): AS/IS

gel formation at 20% w/w: semisolid or liquid gel
propensity to form gels, chimeric or mutated polypeptides, 11% (Table 5): AS/IS
Substance: Pal-HSYSLDVPIGLLQILLEQARARAAREQATTNARILARVGHC-NH2 [SEQ ID NO:265]
gel formation in aqueous solution, 11%: AS/IS (AS/IS for aqueous solution or insoluble)

gel formation at 11% w/w: liquid gel
gel formation at 20% w/w: semisolid gel
gel formation in aqueous solution, 20% (20% w/w): SS (SS for semisolid gel)
Substance: Pal-SSPHSY-miniPEG-VGVAPG-NH2 [SEQ ID NO:248]
propensity to form gels, chimeric or mutated polypeptides, 20% (Table 5, 20% w/w): SS (An ability to form semisolid gel is represented by an SS)

Physical property at 11% w/w (Table 1): AS/IS
propensity to form gels, wild-type counterparts, 11% (Table 5): AS/IS
Substance: Ac-EEMQRR-NH2 [SEQ ID NO:47, reference compound]
gel formation in aqueous solution, 11%: AS/IS (AS/IS for aqueous solution or insoluble)

Substance: Pal-HSYAAVDTSSEITTKDLKEKKEVVEEAEN-NH2 [SEQ ID NO:240]
gel formation at 11% w/w: semisolid gel
gel formation in aqueous solution, 6%: AS/IS (AS/IS for aqueous solution or insoluble)
gel formation in aqueous solution, 11%: SS (SS for semisolid gel)
propensity to form gels, chimeric or mutated polypeptides, 6% (Table 5): AS/IS
propensity to form gels, chimeric or mutated polypeptides, 11% (Table 5): SS (An ability to form semisolid gel is represented by an SS)

Substance: Pal-KVQKLAHQIYQFTDK(Aib)SAPVDPSSPHSY-NH2 [SEQ ID NO:125]
Physical property at 11% w/w (Table 2): AS/IS (AS/IS for aqueous solution or insoluble)

Physical property at 11% w/w (Table 2): SS (SS for semisolid gel)
Substance: (Lauric acid)-SSPHSY-NH2 [SEQ ID NO:122]

Substance: HAEGTFTSDVSSYLEGQAAKEFIAWLVKGR-NH2 [SEQ ID NO:14, reference compound]
gel formation at 11% w/w: liquid gel
gel formation in aqueous solution, 6%: AS/IS (AS/IS for aqueous solution or insoluble)
propensity to form gels, wild-type counterparts, 6% (Table 5): AS/IS

Physical property at 11% w/w (Table 2): SS (SS for semisolid gel)
Substance: (Myristic acid)-SSPHSY-NH2 [SEQ ID NO:123]

gel formation at 6% w/w: liquid gel
gel formation at 11% w/w: semisolid gel
gel formation in aqueous solution, 11%: SS (SS for semisolid gel)
Substance: Pal-KVQKLSAPVDPSSPHSY-miniPEG-CYIQNCPLG-NH2 [SEQ ID NO:205]
propensity to form gels, chimeric or mutated polypeptides, 11% (Table 5): SS (An ability to form semisolid gel is represented by an SS)

Substance: YRQSMNNFQGLRSFGCRFGTCTVQKLAHQIYQFTDKDKDNVAPRSKISPQGY-NH2 [SEQ ID NO:2, reference compound]
Physical property at 11% w/w (Table 1): SS (SS for semisolid gel)
gel formation in aqueous solution, 6%: AS/IS (AS/IS for aqueous solution or insoluble)
gel formation in aqueous solution, 11%: SS (SS for semisolid gel)

Substance: Ace-KVQKLSAPVDPSSPHSY-NH2 [SEQ ID NO:115]
Physical property at 11% w/w (Table 2): AS/IS (AS/IS for aqueous solution or insoluble)

Physical property at 11% w/w (Table 1): AS/IS
propensity to form gels, wild-type counterparts, 11% (Table 5): AS/IS
Substance: (D-Nal)-(D-Cpa)-(D-Pal)-SY-(D-Cit)-LRP-(D-Ala)-NH2 [SEQ ID NO:27, reference compound]
gel formation in aqueous solution, 11%: AS/IS (AS/IS for aqueous solution or insoluble)

gel formation at 11% w/w: does not form gel
Physical property at 11% w/w (Table 1): AS/IS
propensity to form gels, wild-type counterparts, 11% (Table 5): AS/IS
Substance: PFRSVQ-NH2 [SEQ ID NO:37, reference compound]
gel formation in aqueous solution, 11%: AS/IS (AS/IS for aqueous solution or insoluble)

Physical property at 11% w/w (Table 2): SS (SS for semisolid gel)
Substance: Pal-SSPHSY-NH2 [SEQ ID NO:119]

Substance: YVMGHFRWDRF-NH2 [SEQ ID NO:64, reference compound]
gel formation at 6% w/w: stay soluble
gel formation at 11% w/w: form self-assembling gels; also recorded: liquid gel
gel formation in aqueous solution, 6%: AS/IS (AS/IS for aqueous solution or insoluble)
propensity to form gels, wild-type counterparts, 6% (Table 5): AS/IS
gel formation at the selected concentration (selected concentration (i.e., at 30%, 20%, 11%, or 6% w/w)): only form aqueous solution or are insoluble

Physical property at 11% w/w (Table 2): SS (SS for semisolid gel)
Substance: Pal-KVQKLAHQIYQFTD(Aib)DSAPVDPSSPHSY-NH2 [SEQ ID NO:124]

Substance: Ace-FKFEFKFE-NH2 [SEQ ID NO:141, reference compound]
Physical property at 11% w/w (Table 2): SS (SS for semisolid gel)

Substance: YADAIFTNSYRKVLGQLSARKLLQDIMSR-NH2 [SEQ ID NO:35, reference compound]
gel formation at 11% w/w: does not form gel
gel formation at 20% w/w: does not form gel
Physical property at 11% w/w (Table 1): AS/IS
gel formation in aqueous solution, 11%: AS/IS (AS/IS for aqueous solution or insoluble)
gel formation in aqueous solution, 20% (20% w/w): AS/IS (AS/IS for aqueous solution or insoluble)
propensity to form gels, wild-type counterparts, 11% (Table 5): AS/IS
propensity to form gels, wild-type counterparts, 20% (Table 5, 20% w/w): AS/IS

Substance: Pal-SSPHSY-miniPEG-SDAAVDTSSEITTKDLKEKKEVVEEAEN-NH2 ({Palmitoyl-Ser-Ser-Pro-H2N-Ser-Tyr-miniPEG}-SDAAVDTSSEITTKDLKEKKEVVEEAEN-NH2) [SEQ ID NO:239]
gel formation at 11% w/w: does not form gel
gel formation in aqueous solution, 11%: AS/IS (AS/IS for aqueous solution or insoluble)

Substance: Pal-KPSSPHSY-NH2 (Palmitoyl-KPSSPHSY-NH2; SMILES CCCCCCCCCCCCCCCC(=O)N[C@@H](CCCCN)C(=O)N1CCC[C@H]1C(=O)N[C@@H](CO)C(=O)N[C@@H](CO)C(=O)N1CCC[C@H]1C(=O)N[C@@H](Cc1c[nH]cn1)C(=O)N[C@@H](CO)C(=O)N[C@@H](Cc1ccc(O)cc1)C(N)=O) [SEQ ID NO:118]
Physical property at 11% w/w (Table 2): SS (SS for semisolid gel)
